Read-outs that look alike come from different tables or passages of the source.
Tests used:
HLA-DR DRB1*0405 (human) [1] = biological target: HLA-DR DRB1*0405 (human)
HLA-DR DRB1*1302 (human) [2] = biological target: HLA-DR DRB1*1302 (human)
HLA-DR DRB1*0404 (human) [3] = biological target: HLA-DR DRB1*0404 (human)
HLA-DR DRB1*0101 (human) [4] = biological target: HLA-DR DRB1*0101 (human)
HLA-DR DRB1*0401 (human) [5] = biological target: HLA-DR DRB1*0401 (human)
HLA-DR DRB1*0301 (human) [6] = experiment: competition vs 125I-labeled peptide, purified HLA
[7] = biological target: purified HLA DRB5*0101 (human); experiment: competitive inhibition of 125I-labeled peptide binding to purified HLA
[8] = biological target: purified HLA DRB1*0701 (human); experiment: as above
[9] = biological target: purified HLA DRB1*1101 (human); experiment: as above
[10] = biological target: purified HLA DRB1*0301 (human); experiment: as above
[11] = biological target: purified HLA DRB1*1302 (human); experiment: as above
[12] = biological target: purified HLA DRB1*1501 (human); experiment: as above
[13] = biological target: purified HLA DRB4*0101 (human); experiment: as above
[14] = biological target: purified HLA DRB1*0405 (human); experiment: as above
[15] = biological target: purified HLA DRB1*0401 (human); experiment: as above
[16] = biological target: purified HLA DRB1*0404 (human); experiment: as above
[17] = biological target: purified HLA DRB1*0802 (human); experiment: as above
[18] = biological target: purified HLA DRB1*0101 (human); experiment: as above
HLA-DR DRB1*0405 (human) [19] = experiment: competition with 125I-labelled reference peptide on purified HLA-DR
HLA-DR DRB1*1302 (human) [20] = experiment: as above
HLA-DR DRB1*1101 (human) [21] = experiment: as above
HLA-DR DRB1*0404 (human) [22] = experiment: as above
HLA-DR DRB1*0301 (human) [23] = experiment: as above
HLA-DR DRB1*0101 (human) [24] = experiment: as above
HLA-DR DRB1*0701 (human) [25] = experiment: as above
HLA-DR DRB1*1501 (human) [26] = experiment: as above
HLA-DR DRB1*0401 (human) [27] = experiment: as above
[28] = biological target: purified HLA DRB1*0701 (human); experiment: competition with 125I-labelled peptide for purified HLA
[29] = biological target: purified HLA DRB1*1101 (human); experiment: as above
[30] = biological target: purified HLA DRB1*0301 (human); experiment: as above
[31] = biological target: purified HLA DRB1*1302 (human); experiment: as above
[32] = biological target: purified HLA DRB1*1501 (human); experiment: as above
[33] = biological target: purified HLA DRB1*0405 (human); experiment: as above
[34] = biological target: purified HLA DRB1*0401 (human); experiment: as above
[35] = biological target: purified HLA DRB1*0404 (human); experiment: as above
[36] = biological target: purified HLA DRB1*0101 (human); experiment: as above
[37] = biological target: purified HLA-DR DRB1*0701 (human); experiment: competition with 125I-labelled reference peptide, purified HLA
[38] = biological target: purified HLA-DR DRB1*1101 (human); experiment: as above
[39] = biological target: purified HLA-DR DRB1*0405 (human); experiment: as above
[40] = biological target: purified HLA-DR DRB1*0401 (human); experiment: as above
[41] = biological target: purified HLA-DR DRB1*0802 (human); experiment: as above
[42] = biological target: purified HLA-DR DRB5*0101 (human); experiment: as above
[43] = biological target: purified HLA-DR DRB1*1501 (human); experiment: as above
[44] = biological target: purified HLA-DR DRB4*0101 (human); experiment: as above
[45] = biological target: purified HLA-DR DRB1*0101 (human); experiment: as above
[46] = biological target: purified HLA-DR DRB1*0404 (human); experiment: as above
HLA-DR DRB4*0101 (human) [47] = experiment: competition assay, purified HLA, inhibition of 125I-labelled reference peptide
HLA-DR DRB1*1302 (human) [48] = experiment: as above
HLA-DR DRB1*0101 (human) [49] = experiment: as above
HLA-DR DRB1*1501 (human) [50] = experiment: as above
HLA-DR DRB1*0401 (human) [51] = experiment: as above
HLA-DR DRB4*0101 (human) [52] = experiment: competition with 125I-labelled peptide, purified HLA
HLA-DR DRB1*0405 (human) [53] = experiment: as above
HLA-DR DRB1*1302 (human) [54] = experiment: as above
HLA-DR DRB1*1101 (human) [55] = experiment: as above
HLA-DR DRB1*0404 (human) [56] = experiment: as above
HLA-DR DRB1*0901 (human) = experiment: as above
HLA-DR DRB5*0101 (human) = experiment: as above
HLA-DR DRB1*0301 (human) [57] = experiment: as above
HLA-DR DRB1*0101 (human) [58] = experiment: as above
HLA-DR DRB1*0802 (human) = experiment: as above
HLA-DR DRB1*0701 (human) [59] = experiment: as above
HLA-DR DRB1*1501 (human) [60] = experiment: as above
HLA-DR DRB1*0401 (human) [61] = experiment: as above

## CEQIADSQHRSHRQM (modifications not checked) [Flu.M1.154]
HLA-DR DRB1*0405 (human) [1]
  IC50: > 10 µM
HLA-DR DRB1*1302 (human) [2]
  IC50: > 10 µM
HLA-DR DRB1*0404 (human) [3]
  IC50: > 10 µM
HLA-DR DRB1*0101 (human) [4]
  IC50: > 10 µM
HLA-DR DRB1*0401 (human) [5]
  IC50: > 10 µM
HLA-DR DRB1*0301 (human) [6]
  IC50: 804 nM

## RREVHIYYLEKANKI (modifications not checked) [Flu.PA.127 peptide …]
[7]
  IC50: 25 nM
[8]
  IC50: 23 nM
[9]
  IC50: 96 nM
[10]
  IC50: > 10 µM
[11]
  IC50: 150 nM
[12]
  IC50: 4.5 nM
[13]
  IC50: 5 nM
[14]
  IC50: 1490 nM
[15]
  IC50: 63 nM
[16]
  IC50: 181 nM
[17]
  IC50: 95 nM
[18]
  IC50: 34 nM

## YIQMCTELKLSDYEG (modifications not checked) [Flu.NP.43 peptide …]
HLA-DR DRB1*0405 (human) [19]
  IC50: 2690 nM
HLA-DR DRB1*1302 (human) [20]
  IC50: 15.4 µM
HLA-DR DRB1*1101 (human) [21]
  IC50: 5.84 µM
HLA-DR DRB1*0404 (human) [22]
  IC50: 1640 nM
HLA-DR DRB1*0301 (human) [23]
  IC50: 368 nM
HLA-DR DRB1*0101 (human) [24]
  IC50: 320 nM
HLA-DR DRB1*0701 (human) [25]
  IC50: 5.37 µM
HLA-DR DRB1*1501 (human) [26]
  IC50: 594 nM
HLA-DR DRB1*0401 (human) [27]
  IC50: 392 nM
[28]
  IC50: 5.37 µM
[29]
  IC50: 5.84 µM
[30]
  IC50: 368 nM
[31]
  IC50: 15.4 µM
[32]
  IC50: 594 nM
[33]
  IC50: 2690 nM
[34]
  IC50: 392 nM
[35]
  IC50: 1640 nM
[36]
  IC50: 320 nM

## ESAVLRGFLILGKED (modifications not checked) [Flu.PB2.690]
[37]
  IC50: 2470 nM
[38]
  IC50: 1030 nM
[39]
  IC50: 7.1 µM
[40]
  IC50: 13.2 µM
[41]
  IC50: 803 nM
[42]
  IC50: 303 nM
[43]
  IC50: 39 nM
[44]
  IC50: 1280 nM
[45]
  IC50: 8.4 nM
[46]
  IC50: 110 nM

## DILMRMSKMQLGSSS (modifications not checked) [Flu.NS2.87]
HLA-DR DRB4*0101 (human) [47]
  IC50: 0.011 µM
HLA-DR DRB1*1302 (human) [48]
  IC50: 423 nM
HLA-DR DRB1*0101 (human) [49]
  IC50: 2140 nM
HLA-DR DRB1*1501 (human) [50]
  IC50: 748 nM
HLA-DR DRB1*0401 (human) [51]
  IC50: 717 nM

## VMRMGDLHSLQNRNG (modifications not checked) [Flu.NS2.125]
HLA-DR DRB4*0101 (human) [47]
  IC50: 8.82 µM
HLA-DR DRB1*1302 (human) [48]
  IC50: 1370 nM
HLA-DR DRB1*0101 (human) [49]
  IC50: 249 nM
HLA-DR DRB1*1501 (human) [50]
  IC50: 372 nM
HLA-DR DRB1*0401 (human) [51]
  IC50: 448 nM

## SLMLQIGNMISIWVSHS (modifications not checked) [Flu.NA.21]
HLA-DR DRB4*0101 (human) [52]
  IC50: 8 nM
HLA-DR DRB1*0405 (human) [53]
  IC50: 66 nM
HLA-DR DRB1*1302 (human) [54]
  IC50: 10 nM
HLA-DR DRB1*1101 (human) [55]
  IC50: 83 nM
HLA-DR DRB1*0404 (human) [56]
  IC50: 3 nM
HLA-DR DRB1*0901 (human)
  IC50: 86 nM
HLA-DR DRB5*0101 (human)
  IC50: 24 nM
HLA-DR DRB1*0301 (human) [57]
  IC50: 441 nM
HLA-DR DRB1*0101 (human) [58]
  IC50: 8 nM
HLA-DR DRB1*0802 (human)
  IC50: 89 nM
HLA-DR DRB1*0701 (human) [59]
  IC50: 13 nM
HLA-DR DRB1*1501 (human) [60]
  IC50: 8 nM
HLA-DR DRB1*0401 (human) [61]
  IC50: 5 nM
